Measured values: the supplement of paper PMC11246515
± gives the standard deviation of the averaged measurements.

Assay: total protein half-life in vivo (active degradation + dilution); higher = more stable protein
[1] = E. coli NCM3722 delta-clpP delta-lon delta-hslV, growth: N-lim chemostat, doubling time 6 h
[2] = E. coli NCM3722 delta-clpP, growth: N-lim chemostat, doubling time 6 h
[3] = E. coli NCM3722 delta-hslV, growth: N-lim chemostat, doubling time 6 h
[4] = E. coli NCM3722 delta-lon, growth: N-lim chemostat, doubling time 6 h
[5] = E. coli NCM3722 delta-smpB, growth: N-lim chemostat, doubling time 6 h
[6] = wild type E. coli NCM3722, growth: C-lim chemostat, doubling time 6 h
[7] = wild type E. coli NCM3722, growth: C-lim chemostat, doubling time 12 h
[8] = wild type E. coli NCM3722, growth: N-lim chemostat, doubling time 6 h
[9] = wild type E. coli NCM3722, growth: N-lim chemostat, doubling time 12 h
[10] = wild type E. coli NCM3722, growth: P-lim chemostat, doubling time 6 h
[11] = wild type E. coli NCM3722, growth: P-lim chemostat, doubling time 12 h
[12] = wild type E. coli NCM3722, growth: C-lim chemostat, doubling time 3 h

Question: What does the source list for “MFKPHVTVACVVHAEGKFLVVEETINGKALWNQPAGHLEADETLVEAAARELWEETGISAQPQHFIRMHQWIAPDKTPFLRFLFAIELEQICPTQPHDSDIDCCRWVSAEEILQASNLRSPLVAESIRCYQSGQRYPLEMIGDFNWPFTKGVI [P0AEI6]”?
Answer: total protein half-life in vivo [1]: 4.74 ± 0.38 h; total protein half-life in vivo [2]: 4.42 ± 0.56 h; total protein half-life in vivo [3]: 4.45 h; total protein half-life in vivo [4]: 4.69 ± 0.34 h; total protein half-life in vivo [5]: 4.929 ± 0.049 h; total protein half-life in vivo [6]: 5.3 ± 0.12 h; total protein half-life in vivo [7]: 11.6 ± 1.9 h; total protein half-life in vivo [8]: 4.54 ± 0.27 h; total protein half-life in vivo [9]: 6.249 ± 0.042 h; total protein half-life in vivo [10]: 5.49 ± 0.18 h; total protein half-life in vivo [11]: 11.12 ± 0.055 h

Question: With “MFLAQEIIRKKRDGHALSDEEIRFFINGIRDNTISEGQIAALAMTIFFHDMTMPERVSLTMAMRDSGTVLDWKSLHLNGPIVDKHSTGGVGDVTSLMLGPMVAACGGYIPMISGRGLGHTGGTLDKLESIPGFDIFPDDNRFREIIKDVGVAIIGQTSSLAPADKRFYATRDITATVDSIPLITASILAKKLAEGLDALVMDVKVGSGAFMPTYELSEALAEAIVGVANGAGVRTTALLTDMNQVLASSAGNAVEVREAVQFLTGEYRNPRLFDVTMALCVEMLISGKLAKDDAEARAKLQAVLDNGKAAEVFGRMVAAQKGPTDFVENYAKYLPTAMLTKAVYADTEGFVSEMDTRALGMAVVAMGGGRRQASDTIDYSVGFTDMARLGDQVDGQRPLAVIHAKDENNWQEAAKAVKAAIKLADKAPESTPTVYRRISE” as the sequence, how does the “total protein half-life in vivo” value [1] read?
Answer: 5.35 ± 0.43 h

Question: What about the “total protein half-life in vivo” value [2] of the same sequence?
Answer: 5.92 ± 0.45 h

Question: And the “total protein half-life in vivo” value [3]?
Answer: 5.18 ± 0.25 h

Question: And the “total protein half-life in vivo” value [4]?
Answer: 5.58 ± 0.26 h

Question: And the “total protein half-life in vivo” value [5]?
Answer: 5.29 ± 0.068 h

Question: And the “total protein half-life in vivo” value [12]?
Answer: 3.127 ± 0.0038 h

Question: What about the “total protein half-life in vivo” value [6] of the same sequence?
Answer: 5.78 ± 0.25 h

Question: And the “total protein half-life in vivo” value [8]?
Answer: 5.36 ± 0.13 h

Question: What about the “total protein half-life in vivo” value [9] of the same sequence?
Answer: 10.4 ± 1.3 h

Question: And the “total protein half-life in vivo” value [10]?
Answer: 6.07 ± 0.16 h

Question: What about the “total protein half-life in vivo” value [11] of the same sequence?
Answer: 13.1 ± 1.6 h

Question: For “MFPEYRDLISRLKNENPRFMSLFDKHNKLDHEIARKEGSDGRGYNAEVVRMKKQKLQLKDEMLKILQQESVKEV [P0ACW6]”, which “total protein half-life in vivo” value [12] is on record?
Answer: 1.33 h

Question: What about the “total protein half-life in vivo” value [6] of the same sequence?
Answer: 1.87 ± 0.1 h

Question: What about the “total protein half-life in vivo” value [7] of the same sequence?
Answer: 1.75 h

Question: With “MFRGATLVNLDSKGRLSVPTRYREQLLENAAGQMVCTIDIYHPCLLLYPLPEWEIIEQKLSRLSSMNPVERRVQRLLLGHASECQMDGAGRLLIAPVLRQHAGLTKEVMLVGQFNKFELWDETTWHQQVKEDIDAEQLATGDLSERLQDLSL” as the sequence, how does the “total protein half-life in vivo” value [1] read?
Answer: 7.01 ± 0.38 h

Question: And the “total protein half-life in vivo” value [2]?
Answer: 6.48 ± 0.5 h

Question: And the “total protein half-life in vivo” value [3]?
Answer: 6.33 ± 0.068 h

Question: What about the “total protein half-life in vivo” value [4] of the same sequence?
Answer: 6.98 ± 0.57 h

Question: And the “total protein half-life in vivo” value [5]?
Answer: 5.69 ± 0.38 h

Question: And the “total protein half-life in vivo” value [12]?
Answer: 3.22 ± 0.08 h

Question: And the “total protein half-life in vivo” value [6]?
Answer: 6.14 ± 0.43 h

Question: What about the “total protein half-life in vivo” value [7] of the same sequence?
Answer: 12.19 ± 0.11 h

Question: What about the “total protein half-life in vivo” value [8] of the same sequence?
Answer: 5.98 ± 0.57 h

Question: What about the “total protein half-life in vivo” value [9] of the same sequence?
Answer: 12.9 ± 0.16 h

Question: And the “total protein half-life in vivo” value [10]?
Answer: 6.8 ± 0.66 h

Question: And the “total protein half-life in vivo” value [11]?
Answer: 14.04 ± 0.07 h

Question: Which “total protein half-life in vivo” value [12] does the source give for “MFRLNPFVRVGLCLSAISCAWPVLAVDDDGETMVVTASSVEQNLKDAPASISVITQEDLQRKPVQNLKDVLKEVPGVQLTNEGDNRKGVSIRGLDSSYTLILVDGKRVNSRNAVFRHNDFDLNWIPVDSIERIEVVRGPMSSLYGSDALGGVVNIITKKIGQKWSGTVTVDTTIQEHRDRGDTYNGQFFTSGPLIDGVLGMKAYGSLAKREKDDPQNSTTTDTGETPRIEGFSSRDGNVEFAWTPNQNHDFTAGYGFDRQDRDSDSLDKNRLERQNYSVSHNGRWDYGTSELKYYGEKVENKNPGNSSPITSESNTVDGKYTLPLTAINQFLTVGGEWRHDKLSDAVNLTGGTSSKTSASQYALFVEDEWRIFEPLALTTGVRMDDHETYGEHWSPRAYLVYNATDTVTVKGGWATAFKAPSLLQLSPDWTSNSCRGACKIVGSPDLKPETSESWELGLYYMGEEGWLEGVESSVTVFRNDVKDRISISRTSDVNAAPGYQNFVGFETGANGRRIPVFSYYNVNKARIQGVETELKIPFNDEWKLSINYTYNDGRDVSNGENKPLSDLPFHTANGTLDWKPLALEDWSFYVSGHYTGQKRADSATAKTPGGYTIWNTGAAWQVTKDVKLRAGVLNLGDKDLSRDDYSYNEDGRRYFMAVDYRF” here?
Answer: 3.86 ± 0.058 h

Question: What about the “total protein half-life in vivo” value [9] of the same sequence?
Answer: > 16 h

Question: What about the “total protein half-life in vivo” value [11] of the same sequence?
Answer: > 16 h

Question: With “MFSIQQPLLVFSDLDGTLLDSHSYDWQPAAPWLTRLREANVPVILCSSKTSAEMLYLQKTLGLQGLPLIAENGAVIQLAEQWQEIDGFPRIISGISHGEISLVLNTLREKEHFKFTTFDDVDDATIAEWTGLSRSQAALTQLHEASVTLIWRDSDERMAQFTARLNELGLQFMQGARFWHVLDASAGKDQAANWIIATYQQLSGKRPTTLGLGDGPNDAPLLEVMDYAVIVKGLNREGVHLHDEDPARVWRTQREGPEGWREGLDHFFSAR” as the sequence, how does the “total protein half-life in vivo” value [1] read?
Answer: 4.98 ± 0.28 h

Question: And the “total protein half-life in vivo” value [2]?
Answer: 4.08 ± 0.42 h

Question: What about the “total protein half-life in vivo” value [3] of the same sequence?
Answer: 4.17 ± 0.055 h

Question: What about the “total protein half-life in vivo” value [4] of the same sequence?
Answer: 4.3 ± 0.26 h

Question: What about the “total protein half-life in vivo” value [5] of the same sequence?
Answer: 3.73 ± 0.22 h

Question: What about the “total protein half-life in vivo” value [12] of the same sequence?
Answer: 2.87 ± 0.076 h

Question: And the “total protein half-life in vivo” value [6]?
Answer: 5.25 ± 0.12 h

Question: What about the “total protein half-life in vivo” value [7] of the same sequence?
Answer: 8.64 ± 0.059 h

Question: What about the “total protein half-life in vivo” value [8] of the same sequence?
Answer: 4.167 ± 0.036 h

Question: And the “total protein half-life in vivo” value [9]?
Answer: 6.751 ± 0.019 h

Question: And the “total protein half-life in vivo” value [10]?
Answer: 5.43 ± 0.42 h

Question: What about the “total protein half-life in vivo” value [11] of the same sequence?
Answer: 10.5 ± 0.14 h

Question: Which “total protein half-life in vivo” value [1] does the source give for “MFTFIKKVIKTGTATSSYPLEPIAVDKNFRGKPEQNPQQCIGCAACVNACPSNALTVETDLATGELAWEFNLGHCIFCGRCEEVCPTAAIKLSQEYELAVWKKEDFLQQSRFALCNCRVCNRPFAVQKEIDYAIALLKHNGDSRAENHRESFETCPECKRQKCLVPSDRIELTRHMKEAI” here?
Answer: 2.95 h

Question: Which “total protein half-life in vivo” value [1] does the source give for “MFTKRHRITLLFNANKAYDRQVVEGVGEYLQASQSEWDIFIEEDFRARIDKIKDWLGDGVIADFDDKQIEQALADVDVPIVGVGGSYHLAESYPPVHYIATDNYALVESAFLHLKEKGVNRFAFYGLPESSGKRWATEREYAFRQLVAEEKYRGVVYQGLETAPENWQHAQNRLADWLQTLPPQTGIIAVTDARARHILQVCEHLHIPVPEKLCVIGIDNEELTRYLSRVALSSVAQGARQMGYQAAKLLHRLLDKEEMPLQRILVPPVRVIERRSTDYRSLTDPAVIQAMHYIRNHACKGIKVDQVLDAVGISRSNLEKRFKEEVGETIHAMIHAEKLEKARSLLISTTLSINEISQMCGYPSLQYFYSVFKKAYDTTPKEYRDVNSEVML [P0ACI3]” here?
Answer: 5.66 ± 0.54 h

Question: And the “total protein half-life in vivo” value [2]?
Answer: 5.86 ± 0.86 h

Question: And the “total protein half-life in vivo” value [4]?
Answer: 3.81 ± 0.22 h

Question: What about the “total protein half-life in vivo” value [5] of the same sequence?
Answer: 3.05 ± 0.42 h

Question: And the “total protein half-life in vivo” value [12]?
Answer: 2.89 ± 0.14 h

Question: What about the “total protein half-life in vivo” value [6] of the same sequence?
Answer: 5.27 ± 0.069 h

Question: And the “total protein half-life in vivo” value [7]?
Answer: 9.26 ± 0.14 h

Question: What about the “total protein half-life in vivo” value [8] of the same sequence?
Answer: 3.78 ± 0.56 h

Question: And the “total protein half-life in vivo” value [9]?
Answer: 4.44 ± 1.1 h

Question: And the “total protein half-life in vivo” value [10]?
Answer: 5.4 ± 0.33 h

Question: And the “total protein half-life in vivo” value [11]?
Answer: 9.78 ± 0.94 h

Question: With “MFTRVANFCRKVLSREESEAEQAVARPQVTVIPREQHAISRKDISENALKVMYRLNKAGYEAWLVGGGVRDLLLGKKPKDFDVTTNATPEQVRKLFRNCRLVGRRFRLAHVMFGPEIIEVATFRGHHEGNVSDRTTSQRGQNGMLLRDNIFGSIEEDAQRRDFTINSLYYSVADFTVRDYVGGMKDLKDGVIRLIGNPETRYREDPVRMLRAVRFAAKLGMRISPETAEPIPRLATLLNDIPPARLFEESLKLLQAGYGYETYKLLCEYHLFQPLFPTITRYFTENGDSPMERIIEQVLKNTDTRIHNDMRVNPAFLFAAMFWYPLLETAQKIAQESGLTYHDAFALAMNDVLDEACRSLAIPKRLTTLTRDIWQLQLRMSRRQGKRAWKLLEHPKFRAAYDLLALRAEVERNAELQRLVKWWGEFQVSAPPDQKGMLNELDEEPSPRRRTRRPRKRAPRREGTA [P0ABF1]” as the sequence, how does the “total protein half-life in vivo” value [1] read?
Answer: 6.05 ± 0.76 h

Question: And the “total protein half-life in vivo” value [2]?
Answer: 5.89 ± 0.71 h

Question: What about the “total protein half-life in vivo” value [3] of the same sequence?
Answer: 3.67 ± 0.17 h

Question: And the “total protein half-life in vivo” value [4]?
Answer: 3.728 ± 0.025 h

Question: What about the “total protein half-life in vivo” value [5] of the same sequence?
Answer: 3.45 ± 0.18 h

Question: What about the “total protein half-life in vivo” value [12] of the same sequence?
Answer: 2.324 ± 0.019 h

Question: And the “total protein half-life in vivo” value [6]?
Answer: 4.37 ± 0.12 h

Question: And the “total protein half-life in vivo” value [7]?
Answer: 6.58 ± 0.41 h

Question: What about the “total protein half-life in vivo” value [8] of the same sequence?
Answer: 3.84 ± 0.079 h

Question: What about the “total protein half-life in vivo” value [9] of the same sequence?
Answer: 6.19 ± 0.3 h

Question: And the “total protein half-life in vivo” value [10]?
Answer: 3.92 ± 0.57 h

Question: And the “total protein half-life in vivo” value [11]?
Answer: 7.24 ± 0.26 h
